Source: US20140161804A1 (AbbVie / Abbott, published 2014)
Where a chain is given by its changes, count along the chain named. Blank lines part the entries; values can stand above or below the binder they belong to.

Biological target: T1, Human IL-17A (human, UniProt Q16552 20-155, limits assumed)
T1 construct: Biotinylated in the ELISAs; purified recombinant protein in SPR; also called hIL17A; hIL-17
Experiment: ELISA, captured DVD-Ig, biotin-human IL-17 titrated
Description: The following protocol is used to characterize the binding of TNF/IL-17 DVD-Ig proteins to human TNF and IL-17 by enzyme-linked immunosorbent assay (ELISA). An ELISA plate was coated with 50 μl per well of goat anti mouse IgG-Fc at 2 μg/ml, overnight at 4° C. The plate was washed 3 times with PBS/Tween. 50 μl Mab diluted to 1 μg/ml in PBS/0.1% BSA was added to appropriate wells and incubated for 1 hour at room temperature (RT). The plate was washed 3 times with PBS/Tween. 50 μl of serial diluted biotin-human TNF or IL-17 was added to appropriate wells and incubated for 1 hour at RT. The plate was washed 3 times with PBS/Tween. 50 μl of streptavidin-HRP diluted 1:10,000 in PBS/0.1% BSA was added to appropriate wells and incubated for 1 hour at RT. The plate was washed 3 times with PBS/Tween. 50 μl of TMB was added to appropriate wells and the reaction allowed to proceed for 1 minute. The reaction was stopped with 50 μl/well 2N H₂SO₄ and the absorbance read at 450 nm.

T1 sequence (Q16552 20-155 limits assumed): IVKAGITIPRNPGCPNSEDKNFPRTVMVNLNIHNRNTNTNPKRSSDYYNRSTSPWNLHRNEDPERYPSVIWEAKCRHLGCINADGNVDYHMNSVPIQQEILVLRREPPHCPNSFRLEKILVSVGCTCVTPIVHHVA

- EC50: 0.188 nM
B1: hMAK195-24-h10F7-A6.8 DVD-Ig (bispecific antibody, human IgG1, kappa, L234A L235A)
heavy: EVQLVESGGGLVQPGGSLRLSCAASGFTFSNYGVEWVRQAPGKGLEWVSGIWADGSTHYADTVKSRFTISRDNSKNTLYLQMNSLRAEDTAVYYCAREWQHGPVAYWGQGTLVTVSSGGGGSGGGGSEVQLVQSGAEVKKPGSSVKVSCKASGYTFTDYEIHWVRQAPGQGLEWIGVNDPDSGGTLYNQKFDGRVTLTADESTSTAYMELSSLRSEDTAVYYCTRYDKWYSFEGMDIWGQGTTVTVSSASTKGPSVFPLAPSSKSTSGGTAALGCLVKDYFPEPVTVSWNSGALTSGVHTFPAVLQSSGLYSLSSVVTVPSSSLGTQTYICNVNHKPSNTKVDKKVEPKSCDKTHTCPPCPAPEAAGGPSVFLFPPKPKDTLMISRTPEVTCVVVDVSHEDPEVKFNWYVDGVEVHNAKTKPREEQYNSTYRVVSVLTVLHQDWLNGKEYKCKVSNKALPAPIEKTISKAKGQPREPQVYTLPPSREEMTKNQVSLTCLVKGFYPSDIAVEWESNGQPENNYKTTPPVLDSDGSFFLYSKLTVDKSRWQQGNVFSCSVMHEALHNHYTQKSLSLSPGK
light: DIQMTQSPSSLSASVGDRVTITCKASQLVSSAVAWYQQKPGKAPKLLIYWASTLHTGVPSRFSGSGSGTDFTLTISSLQPEDFATYYCQQHYRTPFTFGQGTKLEIKRGGSGGGGSGDIQMTQSPSSLSASVGDRVTITCSASQGIRSYIDWFQQKPGKSPKRLIYATFDLASGVPSRFSGSGSGTDYTLTISSLQPEDFATYYCRQVGNYPGTFGQGTKLEIKRTVAAPSVFIFPPSDEQLKSGTASVVCLLNNFYPREAKVQWKVDNALQSGNSQESVTEQDSKDSTYSLSSTLTLSKADYEKHKVYACEVTHQGLSSPVTKSFNRGEC
notes: DVD-Ig; IgG1 234,235 mut, kappa; GS10 linkers; also called hMAK195-24-GS10-A6 DVD

- EC50: 0.295 nM
B2: hMAK195-24-h10F7-A11.8 DVD-Ig (bispecific antibody, human IgG1, kappa, L234A L235A)
heavy: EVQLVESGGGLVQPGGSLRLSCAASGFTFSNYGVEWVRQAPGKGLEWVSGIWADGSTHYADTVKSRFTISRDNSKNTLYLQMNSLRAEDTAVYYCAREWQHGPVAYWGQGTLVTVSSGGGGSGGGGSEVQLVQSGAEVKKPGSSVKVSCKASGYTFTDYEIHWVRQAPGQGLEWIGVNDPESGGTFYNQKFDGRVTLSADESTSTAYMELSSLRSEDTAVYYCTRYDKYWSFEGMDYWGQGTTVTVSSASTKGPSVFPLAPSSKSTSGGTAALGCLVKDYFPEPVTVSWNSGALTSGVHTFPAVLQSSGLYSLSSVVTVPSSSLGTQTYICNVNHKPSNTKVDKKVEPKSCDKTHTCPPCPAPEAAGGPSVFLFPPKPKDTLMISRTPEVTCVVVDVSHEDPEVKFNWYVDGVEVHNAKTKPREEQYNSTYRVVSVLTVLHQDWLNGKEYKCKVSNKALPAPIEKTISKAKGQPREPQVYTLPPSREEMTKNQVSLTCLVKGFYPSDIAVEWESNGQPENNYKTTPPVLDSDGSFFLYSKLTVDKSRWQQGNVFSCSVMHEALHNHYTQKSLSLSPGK
light: B1 light with S141R, Q144S, R147I, S160A, N210S, G213E
notes: DVD-Ig; IgG1 234,235 mut, kappa; GS10 linkers; also called hMAK195-24-GS10-A11 DVD

- EC50: 0.23 nM
B3: hMAK195-21-h10F7-A16.8 DVD-Ig (bispecific antibody, human IgG1, kappa, L234A L235A)
heavy: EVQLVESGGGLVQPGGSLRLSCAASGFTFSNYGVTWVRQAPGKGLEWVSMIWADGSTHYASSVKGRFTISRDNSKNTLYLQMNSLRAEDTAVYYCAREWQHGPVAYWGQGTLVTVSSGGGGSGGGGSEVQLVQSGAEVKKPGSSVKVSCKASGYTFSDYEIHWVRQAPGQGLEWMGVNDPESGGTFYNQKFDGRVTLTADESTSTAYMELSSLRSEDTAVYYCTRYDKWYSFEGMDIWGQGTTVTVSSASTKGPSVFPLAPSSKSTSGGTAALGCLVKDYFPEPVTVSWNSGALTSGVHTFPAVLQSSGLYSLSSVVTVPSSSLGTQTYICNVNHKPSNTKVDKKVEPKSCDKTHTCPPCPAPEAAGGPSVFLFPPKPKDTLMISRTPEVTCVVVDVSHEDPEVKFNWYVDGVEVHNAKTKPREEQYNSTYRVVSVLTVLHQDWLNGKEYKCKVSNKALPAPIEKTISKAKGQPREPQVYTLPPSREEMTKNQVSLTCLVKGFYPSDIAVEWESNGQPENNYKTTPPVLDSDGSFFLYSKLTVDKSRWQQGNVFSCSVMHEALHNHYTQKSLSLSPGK
light: B1 light with K24R, T53A, L54R, R93K
notes: DVD-Ig; IgG1 234,235 mut, kappa; GS10 linkers; light chain shared with the A6 DVD-Ig; also called ShMAK195-21-h10F7-A16.8 DVD-Ig; hMAK195-21-GS10-A16 DVD

- EC50: 0.1 nM
B4: hMAK195-21-h10F7-M10.8 DVD-Ig (bispecific antibody, human IgG1, kappa, L234A L235A)
heavy: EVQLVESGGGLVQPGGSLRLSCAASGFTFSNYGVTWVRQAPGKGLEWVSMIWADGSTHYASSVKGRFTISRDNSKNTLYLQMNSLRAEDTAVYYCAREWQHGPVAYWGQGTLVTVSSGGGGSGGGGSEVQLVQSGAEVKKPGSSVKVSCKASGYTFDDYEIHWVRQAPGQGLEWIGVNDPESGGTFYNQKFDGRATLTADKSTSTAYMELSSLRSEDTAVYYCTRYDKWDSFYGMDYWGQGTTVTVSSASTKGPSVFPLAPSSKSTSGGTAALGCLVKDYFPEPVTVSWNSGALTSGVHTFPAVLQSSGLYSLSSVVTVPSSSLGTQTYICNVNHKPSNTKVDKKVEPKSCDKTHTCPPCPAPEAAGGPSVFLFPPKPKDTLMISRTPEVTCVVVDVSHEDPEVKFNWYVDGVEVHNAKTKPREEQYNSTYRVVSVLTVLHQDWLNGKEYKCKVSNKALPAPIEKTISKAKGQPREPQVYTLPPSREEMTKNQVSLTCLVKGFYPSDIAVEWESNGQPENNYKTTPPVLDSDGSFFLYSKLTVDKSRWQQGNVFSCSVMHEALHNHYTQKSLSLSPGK
light: DIQMTQSPSSLSASVGDRVTITCRASQLVSSAVAWYQQKPGKAPKLLIYWASARHTGVPSRFSGSGSGTDFTLTISSLQPEDFATYYCQQHYKTPFTFGQGTKLEIKRGGSGGGGSGDIQMTQSPSSLSASVGDRVTITCSASSGSISYIDWFQQKPGKAPKRLIYATFELASGVPSRFSGSGSGTDFTLTISSLQPEDFATYYCHQLGSYPDTFGQGTKLEIKRTVAAPSVFIFPPSDEQLKSGTASVVCLLNNFYPREAKVQWKVDNALQSGNSQESVTEQDSKDSTYSLSSTLTLSKADYEKHKVYACEVTHQGLSSPVTKSFNRGEC
notes: DVD-Ig; IgG1 234,235 mut, kappa; GS10 linkers; also called hMAK195-21-GS10-M10 DVD

- EC50: 0.242 nM
B5: hMAK195-21-h10F7-B20.8 DVD-Ig (bispecific antibody, human IgG1, kappa, L234A L235A)
heavy: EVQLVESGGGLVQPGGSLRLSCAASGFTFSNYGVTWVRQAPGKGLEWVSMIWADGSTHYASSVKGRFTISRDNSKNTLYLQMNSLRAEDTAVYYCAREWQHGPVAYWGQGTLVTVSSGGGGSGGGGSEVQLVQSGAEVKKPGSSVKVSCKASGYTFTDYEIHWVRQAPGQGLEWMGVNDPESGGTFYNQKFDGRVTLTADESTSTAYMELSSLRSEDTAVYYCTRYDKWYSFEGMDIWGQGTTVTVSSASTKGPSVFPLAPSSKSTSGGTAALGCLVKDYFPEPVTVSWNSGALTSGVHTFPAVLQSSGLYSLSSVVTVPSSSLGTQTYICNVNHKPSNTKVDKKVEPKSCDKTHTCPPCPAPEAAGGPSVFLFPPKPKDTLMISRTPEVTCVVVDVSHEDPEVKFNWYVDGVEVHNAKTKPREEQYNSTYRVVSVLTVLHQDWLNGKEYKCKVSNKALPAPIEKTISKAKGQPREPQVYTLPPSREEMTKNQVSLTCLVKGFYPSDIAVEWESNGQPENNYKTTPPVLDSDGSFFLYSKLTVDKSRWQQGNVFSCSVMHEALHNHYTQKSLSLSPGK
light: B4 light with S141R, S146I, E170D, F188Y, H206R, L208V, D213E
notes: DVD-Ig; IgG1 234,235 mut, kappa; GS10 linkers; light chain shared with the M11 DVD-Ig; also called hMAK195-21-GS10-B20 DVD

- EC50: 0.2 nM
B6: hMAK195-21-h10F7-B13.8 DVD-Ig (bispecific antibody, human IgG1, kappa, L234A L235A)
heavy: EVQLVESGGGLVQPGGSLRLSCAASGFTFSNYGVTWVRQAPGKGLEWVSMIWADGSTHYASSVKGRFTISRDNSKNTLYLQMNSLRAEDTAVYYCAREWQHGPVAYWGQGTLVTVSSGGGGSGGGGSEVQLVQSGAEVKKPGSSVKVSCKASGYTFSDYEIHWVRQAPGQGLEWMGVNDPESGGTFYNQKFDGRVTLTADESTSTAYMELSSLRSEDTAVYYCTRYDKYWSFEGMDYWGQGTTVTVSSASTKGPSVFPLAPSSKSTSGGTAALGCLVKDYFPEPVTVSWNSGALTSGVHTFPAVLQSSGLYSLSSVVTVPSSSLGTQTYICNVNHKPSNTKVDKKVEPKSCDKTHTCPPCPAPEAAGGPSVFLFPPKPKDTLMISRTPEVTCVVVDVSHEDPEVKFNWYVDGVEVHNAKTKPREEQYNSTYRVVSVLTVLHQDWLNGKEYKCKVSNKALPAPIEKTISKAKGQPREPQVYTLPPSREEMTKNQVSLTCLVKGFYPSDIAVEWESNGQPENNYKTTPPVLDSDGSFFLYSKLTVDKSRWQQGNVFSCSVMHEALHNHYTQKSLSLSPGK
light: B4 light with S141R, S146I, E170D, F188Y, H206R, L208V, D213E
notes: DVD-Ig; IgG1 234,235 mut, kappa; GS10 linkers; light chain shared with the M11 DVD-Ig; also called hMAK195-21-GS10-B13 DVD

- EC50: 0.1 nM
B7: hMAK195-24-h10F7-M10.8 DVD-Ig (bispecific antibody, human IgG1, kappa, L234A L235A)
heavy: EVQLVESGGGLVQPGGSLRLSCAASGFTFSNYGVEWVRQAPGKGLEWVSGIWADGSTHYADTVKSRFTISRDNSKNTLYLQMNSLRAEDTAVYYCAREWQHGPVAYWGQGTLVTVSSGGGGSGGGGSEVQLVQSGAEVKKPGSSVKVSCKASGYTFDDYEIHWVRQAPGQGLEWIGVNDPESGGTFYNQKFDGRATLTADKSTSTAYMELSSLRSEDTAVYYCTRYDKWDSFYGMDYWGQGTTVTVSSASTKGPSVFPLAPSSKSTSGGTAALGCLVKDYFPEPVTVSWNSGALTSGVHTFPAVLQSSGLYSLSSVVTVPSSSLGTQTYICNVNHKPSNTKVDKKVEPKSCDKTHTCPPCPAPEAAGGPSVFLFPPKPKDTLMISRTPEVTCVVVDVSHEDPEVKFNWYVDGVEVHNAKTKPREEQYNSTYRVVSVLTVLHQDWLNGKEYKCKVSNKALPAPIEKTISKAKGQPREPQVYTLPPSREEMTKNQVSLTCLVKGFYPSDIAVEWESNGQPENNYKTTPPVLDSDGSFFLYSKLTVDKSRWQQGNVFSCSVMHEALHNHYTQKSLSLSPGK
light: B4 light with R24K, A53T, R54L, K93R
notes: DVD-Ig; IgG1 234,235 mut, kappa; GS10 linkers; also called hMAK195-24-GS10-M10 DVD

- EC50: 0.104 nM
B8: hMAK199-6-h10F7-M11.8 DVD-Ig (bispecific antibody, human IgG1, kappa, L234A L235A)
heavy: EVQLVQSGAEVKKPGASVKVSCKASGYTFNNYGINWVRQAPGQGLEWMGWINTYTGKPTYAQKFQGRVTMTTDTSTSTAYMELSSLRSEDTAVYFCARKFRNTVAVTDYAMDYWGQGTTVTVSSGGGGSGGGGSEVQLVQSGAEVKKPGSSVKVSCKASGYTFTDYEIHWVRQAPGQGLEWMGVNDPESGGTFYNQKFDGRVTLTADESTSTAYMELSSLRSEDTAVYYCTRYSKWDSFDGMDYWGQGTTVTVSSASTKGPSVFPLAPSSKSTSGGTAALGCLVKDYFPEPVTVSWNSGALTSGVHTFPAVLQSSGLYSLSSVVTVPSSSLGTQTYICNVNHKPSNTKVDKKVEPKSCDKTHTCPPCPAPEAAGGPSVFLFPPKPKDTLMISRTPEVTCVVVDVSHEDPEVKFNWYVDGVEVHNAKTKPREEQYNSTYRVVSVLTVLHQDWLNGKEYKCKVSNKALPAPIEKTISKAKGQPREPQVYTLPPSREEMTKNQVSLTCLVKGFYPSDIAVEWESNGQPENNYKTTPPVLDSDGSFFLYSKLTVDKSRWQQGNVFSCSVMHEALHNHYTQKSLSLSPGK
light: DIQMTQSPSSLSASVGDRVTITCRASQDIYDVLNWYQQKPGKAPKLLIYYASRLQSGVPSRFSGSGSGTDFTLTISSLQPEDFATYYCQQGITLPPTFGQGTKLEIKRGGSGGGGSGDIQMTQSPSSLSASVGDRVTITCRASSGIISYIDWFQQKPGKAPKRLIYATFDLASGVPSRFSGSGSGTDYTLTISSLQPEDFATYYCRQVGSYPETFGQGTKLEIKRTVAAPSVFIFPPSDEQLKSGTASVVCLLNNFYPREAKVQWKVDNALQSGNSQESVTEQDSKDSTYSLSSTLTLSKADYEKHKVYACEVTHQGLSSPVTKSFNRGEC
notes: DVD-Ig; IgG1 234,235 mut, kappa; GS10 linkers; also called HMAK199-6-GS10-H10F7-M11 DVD

- EC50: 0.05 nM
B9: h10F7-M11-hMAK199-4.8 DVD-Ig wt (bispecific antibody, human IgG1, kappa)
heavy: not shown
light: DIQMTQSPSSLSASVGDRVTITCRASSGIISYIDWFQQKPGKAPKRLIYATFDLASGVPSRFSGSGSGTDYTLTISSLQPEDFATYYCRQVGSYPETFGQGTKLEIKRGGSGGGGSGDIQMTQSPSSLSASVGDRVTITCRASQDIENYLNWYQQKPGKAPKLLIYYTSRLQSGVPSRFSGSGSGTDFTLTISSLQPEDFATYFCQQGNTQPPTFGQGTKLEIKRTVAAPSVFIFPPSDEQLKSGTASVVCLLNNFYPREAKVQWKVDNALQSGNSQESVTEQDSKDSTYSLSSTLTLSKADYEKHKVYACEVTHQGLSSPVTKSFNRGEC
notes: DVD-Ig, IL-17 outer / TNF inner domain; wild-type IgG1, kappa; GS10 linkers

- EC50: > 0.5 nM
B10: hMAK199-4-h10F7-M11.4 DVD-Ig wt (bispecific antibody, human IgG1, kappa)
heavy: not shown
light: DIQMTQSPSSLSASVGDRVTITCRASQDIENYLNWYQQKPGKAPKLLIYYTSRLQSGVPSRFSGSGSGTDFTLTISSLQPEDFATYFCQQGNTQPPTFGQGTKLEIKRTVAAPDIQMTQSPSSLSASVGDRVTITCRASSGIISYIDWFQQKPGKAPKRLIYATFDLASGVPSRFSGSGSGTDYTLTISSLQPEDFATYYCRQVGSYPETFGQGTKLEIKRTVAAPSVFIFPPSDEQLKSGTASVVCLLNNFYPREAKVQWKVDNALQSGNSQESVTEQDSKDSTYSLSSTLTLSKADYEKHKVYACEVTHQGLSSPVTKSFNRGEC
notes: DVD-Ig; wild-type IgG1 (CG1 Z NONA), kappa; short (SS) linkers; also called HMAK199-4-SS-H10F7-M11 DVD
